Test results: the supplement of paper PMC7877785
± gives the uncertainty stated by the source.

Test: self-splicing fitness, log relative to wild type (ln ratio); higher = more splicing; Tetrahymena group I intron in knt gene, E. coli kanamycin selection, DiMSum; sequences stand for … in CUCUCU…GGAGGGAAAAGUUAUCAGGCAUGCACCUGGUAGCUAGUCUUUAAACCAAUAGAUUGCAUCGGUUUAAAAGGCAAGACCGUCAAAUUGCGGGAAAGGGGUCAACAGCCGUUCAGUACCAAGUCUCAGGGGAAACUUUGAGAUGGCCUUGCAAAGGGUAUGGUAAUAAGCUGACGGACAUGGUCCUAACCACGCAGCCAAGUCCUAAGUCAACAGAUCUUCUGUUGAUAUGGAUGCAGUUCACAGACUAAAUGUCGGUCGGGGAAGAUGUAUUCUUCUCAUAAGAUAUAGUCGGACCUCUCCUUAAUGGGAGCUAGCGGAUGAAGUGAUGCAACACUGGAGCCGCUGGGAACUAAUUUGUAUGCGAAAGUAUAUUGAUUAGUUUUGGAGUACUCGUGGUCG
How it was run: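 Six replicate transformations of E. coli BL21(DE3) with a pET-22b(+) library were grown overnight at 37°C or 30°C. The library randomised all eight P1ex-region intron nucleotides, the intron lying in the knt kanamycin-resistance gene, and plates were LB agar with or without 25 μg/mL kanamycin plus 100 μg/mL carbenicillin, 50 μM IPTG and 0.2% rhamnose. Pooled colonies were amplicon-sequenced on an Illumina HiSeq 2500, and fitness is the DiMSum error-weighted combination of wild-type-normalised replicate fold changes, kanamycin versus none.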

Row | Sequence | self-splicing fitness (ln) (30 °C) | self-splicing fitness (ln) (37 °C)
1 | UCUAAGCAAUAUUACGGAGU | -2.04 ± 0.13 | -0.505 ± 0.14
2 | UCUAAGCAAUAUUACGGCCU | -3.76 ± 0.41 | 
3 | UCUAAGCAAUAUUACGGUAC | -3.5 ± 0.3 | -2.78 ± 0.4
4 | UCUAAGCAAUAUUACGGUAU | -4.13 ± 0.27 | -1.56 ± 0.21
5 | UCUAAGCAAUAUUACGGUUA | -3.9 ± 0.42 | -1.76 ± 0.17
6 | UCUAAGCAAUAUUACGUAUA | -2.55 ± 0.17 | -1.45 ± 0.12
7 | UCUAAGCAAUAUUACGUAUU | -3.09 ± 0.2 | -2.16 ± 0.2
8 | UCUAAGCAAUAUUACGUCAG | -1.23 ± 0.073 | -0.611 ± 0.08
9 | UCUAAGCAAUAUUACGUCCU | -2.72 ± 0.28 | -0.964 ± 0.21
10 | UCUAAGCAAUAUUACGUGAG | -1.32 ± 0.074 | 0.269 ± 0.096
11 | UCUAAGCAAUAUUACGUGCU | -4.04 ± 0.34 | -2.37 ± 0.2
12 | UCUAAGCAAUAUUACGUUCG | -1.38 ± 0.12 | -1.12 ± 0.12
13 | UCUCAGCAAUAUUACGAAAA | -1.84 ± 0.26 | -2.59 ± 0.26
14 | UCUCAGCAAUAUUACGAACG | -1.88 ± 0.12 | -0.666 ± 0.14
15 | UCUCAGCAAUAUUACGAAGG | -2.79 ± 0.19 | -0.314 ± 0.14
16 | UCUCAGCAAUAUUACGAGAC | -2.81 ± 0.15 | -2.71 ± 0.21
17 | UCUCAGCAAUAUUACGCAAG | -4.47 ± 0.39 | -2.02 ± 0.2
18 | UCUCAGCAAUAUUACGCGUA | -1.04 ± 0.1 | -0.966 ± 0.1
19 | UCUCAGCAAUAUUACGCUCC | -1.02 ± 0.39 | 
20 | UCUCAGCAAUAUUACGGCCU |  | -1.67 ± 0.34
21 | UCUCAGCAAUAUUACGGGAA | -2.28 ± 0.17 | -0.762 ± 0.11

Row | Sequence | self-splicing fitness (ln) (30 °C) | self-splicing fitness (ln) (37 °C)
22 | UCUCAGCAAUAUUACGGGAG | -2.79 ± 0.2 | -1.4 ± 0.16
23 | UCUCAGCAAUAUUACGGGAU | -4.25 ± 0.27 | -2.87 ± 0.19
24 | UCUCAGCAAUAUUACGGGCA | -0.117 ± 0.073 | 0.575 ± 0.09
25 | UCUCAGCAAUAUUACGGGGC | -3.03 ± 0.23 | -3.85 ± 0.37
26 | UCUCAGCAAUAUUACGGGUU | -2.06 ± 0.081 | -1.27 ± 0.1
27 | UCUCAGCAAUAUUACGGUUU | -1.91 ± 0.082 | -0.695 ± 0.081
28 | UCUCAGCAAUAUUACGUCCG | -2.5 ± 0.28 | -2.26 ± 0.41
29 | UCUCAGCAAUAUUACGUCCU | -2.36 ± 0.14 | -2.57 ± 0.24
30 | UCUCAGCAAUAUUACGUGCC | -3.38 ± 0.26 | -1.71 ± 0.23
31 | UCUCAGCAAUAUUACGUUCU | -3.49 ± 0.16 | -1.86 ± 0.17
32 | UCUGAGCAAUAUUACGAGCC | -1.65 ± 0.22 | 
33 | UCUGAGCAAUAUUACGCACG | -3.08 ± 0.33 | 
34 | UCUGAGCAAUAUUACGCAGC | -2.75 ± 0.42 | 
35 | UCUGAGCAAUAUUACGCCAC | -2.41 ± 0.49 | 
36 | UCUGAGCAAUAUUACGCCUG | -3.02 ± 0.18 | -2.18 ± 0.2
37 | UCUGAGCAAUAUUACGCGAA |  | -1.8 ± 0.25
38 | UCUGAGCAAUAUUACGCGAG | -3.09 ± 0.2 | -2.28 ± 0.24
39 | UCUGAGCAAUAUUACGCUGU | -2 ± 0.23 | -1.07 ± 0.19
40 | UCUGAGCAAUAUUACGGAAC | -4.04 ± 0.39 | -3.05 ± 0.28
41 | UCUGAGCAAUAUUACGGAAG | -4.27 ± 0.2 | -3.07 ± 0.23
